Measurements: patent publication US20140274906A1 (NONO, published 2014)
No end group written: not given here.

B2: Src40-49 peptide (peptide)
peptide: KPASADGHRG
B3: biotinylated Src40-49 peptide (peptide)
peptide: KPASADGHRG
modifications: also: biotinylated, position not given here
notes: Labelled probe; also called bio-Src 40-49; Bio-Src40-49
B4: Src 40-58 peptide (plated, unlabelled) (peptide)
peptide: KPASADGHRGPSAAFVPAA
B5: Tat-Src40-49 (peptide)
peptide: YGRKKRRQRRRKPASADGHRG
B6: biotinylated ND2 310-321 (peptide)
peptide: NVKMKWQFEHTK
modifications: also: biotinylated, position not given here
B7: biotinylated scrambled Src 40-58 control peptide (peptide)
peptide: AGSHAPFPSPARAGVAPDA
modifications: also: biotinylated, position not given here
notes: Scrambled negative control; also called sSrc 40-58; B-sSRC 40-58
B8: biotinylated Src 40-58 peptide (peptide)
peptide: KPASADGHRGPSAAFVPAA
modifications: also: biotinylated, position not given here
notes: Probe in dot blots (~15 ug/ml) and ELISA (6 uM); also called biotin-Src 40-58; Biotin-Src 40-58
B9: Tat-ND2 310-321 (peptide)
peptide: YGRKKRRQRRRNVKMKWQFEHTK
B10: GST-ND2.1.4 (AA 289-321) (other)
chain: NLYFYLRLIYSTSITLLPMSNNVKMKWQFEHTK
modifications: also: GST fusion, linker and position in fusion not given here
notes: also called ND2 2.1.4; not shown: glutathione S-transferase (GST) fusion partner
B11: Src40-49-Tat (peptide)
peptide: KPASADGHRGYGRKKRRQRRR

Tests used:
Tat-ND2 310-321 [1] = target: B9; experiment: ELISA, plate coated with Tat-ND2 310-321 (FIG. 5C)
biotinylated ND2 310-321 [2] = target: B6; experiment: dot blot, Src fragments spotted, probed with Bio-ND2 310-321 (FIG. 5A)
biotinylated ND2 310-321 [3] = target: B6; experiment: ELISA, Src peptides plated at ~5 uM (FIG. 5B)
ND2 310-321 peptide [4] = target: T1, ND2 310-321 peptide (human); experiment: competition ELISA, competitor against biotinylated Src40-49 (FIG. 5D)
T1 peptide: NVKMKWQFEHTK

Tat-Src40-49 = target: B5; experiment: dot blot (FIG. 5A)
Src40-49-Tat = target: B11; experiment: dot blot (FIG. 5A)
Src40-49 peptide = target: B2; experiment: dot blot (FIG. 5A)
[5] = target: B4; experiment: ELISA (FIG. 5B)
GST-ND2.1 (AA239-321) [6] = target: T2, GST-ND2.1 (AA239-321) (human, UniProt P03891 239-321); experiment: dot blot of GST-ND2 constructs (FIG. 2B)
T2 construct: not shown: glutathione S-transferase (GST) fusion partner

[7] = target: T3, GST-ND2 (full length ND2) (human, UniProt P03891 1-347); experiment: dot blot of GST-ND2 constructs (FIG. 2B)
T3 construct: GST fusion protein, expressed and purified; printed as full length ND2; not shown: glutathione S-transferase (GST) fusion partner

GST-ND2.1 (AA239-321) [8] = target: T2, GST-ND2.1 (AA239-321); experiment: ELISA, GST-ND2.1 coated, biotin-Src 40-58 at 6 uM, SA-HRP (FIG. 2C)
GST-ND2.1.4 (AA 289-321) = target: B10; experiment: ELISA, GST-ND2.1.4 coated, biotin-Src 40-58 at 6 uM, SA-HRP (FIG. 2C)
[9] = target: T3, GST-ND2 (full length ND2); experiment: dot blot, GST proteins spotted, probed with biotinylated Src 40-58 (FIG. 1C)
Description: (§1) In general, 1-10 ug of peptide or recombinant protein was spotted onto nitrocellulose and dried overnight. Membranes were blocked with 5% milk for 1 h at room temperature, then incubated with biotinylated peptides (˜15 ug/ml) for 2 hours the washed using standard wash buffers. Bound probe was detected using a short incubation with streptavidin conjugated to horseradish peroxidase (SA-HRP) and standard detection reagents, predominantly chemiluminescence kits.

ND2 310-321 peptide [10] = target: T1, ND2 310-321 peptide; experiment: ELISA (FIG. 6); ND2 310-321 is the weaker comparator
Tat-ND2 310-321 [11] = target: B9; experiment: ELISA (FIG. 6)
[12] = target: B3; experiment: competition ELISA, competitor against coated ND2 310-321 peptide (FIG. 7)
[13] = target: B8; experiment: ELISA (FIG. 6)
[14] = target: B7; experiment: dot blot of GST-ND2 constructs (FIG. 2B)
Description: as §1

[15] = target: B8; experiment: ELISA (FIG. 2C)
Tat-ND2 310-321 [16] = target: B9; experiment: competition ELISA, competitor against biotinylated Src40-49, Tat-ND2 310-321 pre-coated (FIG. 5E)

T3 sequence (P03891 whole entry, the tested form may be a part): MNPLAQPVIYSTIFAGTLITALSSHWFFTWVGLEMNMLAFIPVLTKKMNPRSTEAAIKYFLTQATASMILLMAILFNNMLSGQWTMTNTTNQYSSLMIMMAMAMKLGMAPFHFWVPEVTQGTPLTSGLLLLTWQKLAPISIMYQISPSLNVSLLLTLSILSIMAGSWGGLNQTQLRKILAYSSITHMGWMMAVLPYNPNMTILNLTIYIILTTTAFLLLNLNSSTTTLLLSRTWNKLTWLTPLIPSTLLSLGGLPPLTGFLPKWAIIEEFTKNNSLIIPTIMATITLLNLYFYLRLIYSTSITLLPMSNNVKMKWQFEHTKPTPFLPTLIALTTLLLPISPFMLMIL

B1: biotinylated scrambled Src 40-49 control peptide (peptide)
peptide: GAAKRPSDGH
modifications: also: biotinylated, position not given here
notes: also called Bio-sSrc 40-49; sSrc40-49
- binding result (Tat-ND2 310-321 [1]): no binding

Binder: B2
- binding result (biotinylated ND2 310-321 [2]): binds

Binder: B3
- binding result (Tat-ND2 310-321 [1]): binds

Binder: B4
- binding result (biotinylated ND2 310-321 [3]): binds

Binder: B5
- binding result (ND2 310-321 peptide [4]): binds
- binding result (biotinylated ND2 310-321 [2]): binds

Binder: B6
- binding result (Tat-Src40-49): binds
- binding result (Src40-49-Tat): binds
- binding result (Src40-49 peptide): binds
- binding result [5]: binds

Binder: B7
- binding result (GST-ND2.1 (AA239-321) [6]): no binding (tested: ~15 ug/ml biotinylated peptide)
- binding result [7]: no binding (tested: ~15 ug/ml biotinylated peptide)

Binder: B8
- binding result (GST-ND2.1 (AA239-321) [8]): binds
- binding result (GST-ND2.1.4 (AA 289-321)): binds
- binding result [9]: binds
- binding result (ND2 310-321 peptide [10]): binds
- binding result (Tat-ND2 310-321 [11]): binds

Binder: B9
- binding result [12]: binds
- binding result [13]: binds

Binder: B10
- binding result [14]: no binding (tested: ~15 ug/ml biotinylated peptide)
- binding result [15]: binds

Binder: B11
- binding result (biotinylated ND2 310-321 [2]): binds
- binding result (Tat-ND2 310-321 [16]): binds
